Assay [1] concerns the target TRAIL receptor DR5 on SK-Hep1 human hepatoma cells (human) (UniProt O14763). Kind of assay: cell-based or functional assay.
In assay [2] the target is T1, murine TWEAK, full length, on transiently transfected CHO cells (murine, UniProt O54907 1-249).
T1 construct: whole, on cells; also called cell surface TWEAK
T1 sequence (looked up): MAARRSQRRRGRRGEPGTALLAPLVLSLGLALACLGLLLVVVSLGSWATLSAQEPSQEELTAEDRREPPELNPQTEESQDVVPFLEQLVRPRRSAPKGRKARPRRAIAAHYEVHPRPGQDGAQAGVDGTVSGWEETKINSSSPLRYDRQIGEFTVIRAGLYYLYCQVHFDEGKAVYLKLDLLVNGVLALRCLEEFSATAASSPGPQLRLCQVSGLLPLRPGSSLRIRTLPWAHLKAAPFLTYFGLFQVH
Kind of assay: flow cytometry on CHO cells transiently transfected with murine TWEAK, 4 C, detected with anti-mouse TRAIL Ab. The method, then: B) CHO cells were transiently transfected with a murine TWEAK cDNA expression construct, and after 48 h, were incubated at 4° C. with purified Fn14-TRAIL or rTRAIL in sodium azide-containing buffer. The presence of membrane-bound TWEAK on transfectants, and the binding of Fn14-TRAIL to them, was verified by flow cytometry, using anti-mouse TWEAK Ab (B.1) and anti-mouse TRAIL Ab (B.2-5) as detecting Ab, respectively. (B.1) TWEAK is expressed on transfected CHO cells, as detected using anti-TWEAK Ab (solid black line) versus isotype control (filled histogram); (B.2) TRAIL is not detectable on CHO cells, when analyzed using anti-TRAIL Ab (solid black line) versus isotype control (filled histogram). (B.3 and B.4) TRAIL epitopes are enhanced when Fn14-TRAIL is added to TWEAK-expressing, as opposed to TWEAK-negative, CHO cells. Anti-TRAIL Ab and isotype control are represented by solid black line and filled histogram, respectively. […] Isotype control is shown as filled histogram.
To validate the identity of expressed Fn14-TRAIL, its ability to bind to Fn14's ligand, TWEAK, was assessed. To this end, CHO cells were transiently transfected with a murine TWEAK cDNA expression construct (in the pcDNA3 vector), and after 48 h, transfectants were incubated at 4° C. with purified Fn14-TRAIL or soluble TRAIL.
(In general: Flow cytometry measures light scatter and fluorescence of single cells or particles in a stream.)

The record followed here is US20100048478A1 (University of Pennsylvania, published 2010).

Sequence of TRAIL receptor DR5 on SK-Hep1 human hepatoma cells (human) (O14763 56-440): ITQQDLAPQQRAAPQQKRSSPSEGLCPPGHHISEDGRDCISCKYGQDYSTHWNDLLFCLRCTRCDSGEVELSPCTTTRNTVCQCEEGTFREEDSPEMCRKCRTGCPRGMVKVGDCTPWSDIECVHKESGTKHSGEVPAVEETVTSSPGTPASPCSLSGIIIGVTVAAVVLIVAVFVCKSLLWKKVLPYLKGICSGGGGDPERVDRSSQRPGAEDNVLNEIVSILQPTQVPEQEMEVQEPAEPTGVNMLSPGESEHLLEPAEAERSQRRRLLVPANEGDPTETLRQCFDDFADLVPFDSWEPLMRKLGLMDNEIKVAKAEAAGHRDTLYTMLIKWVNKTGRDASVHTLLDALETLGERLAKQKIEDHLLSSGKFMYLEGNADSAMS

As to “purified untagged human Fn14-TRAIL protein”, the killing effect on SK-Hep1 cells (24 h, trypan blue live/dead count) in assay [1] was 0.04 nM.

B1: soluble TRAIL (aa 118-291 of murine TRAIL) (ligand, UniProt P50592 118-291, looked up)
chain: PRGGRPQKVAAHITGITRRSNSALIPISKDGKTLGQKIESWESSRKGHSFLNHVLFRNGELVIEQEGLYYIYSQTYFRFQEAEDASKMVSKDKVRTKQLVQYIYKYTSYPDPIVLMKSARNSCWSRDAEYGLYSIYQGGLFELKKNDRIFVSVTNEHLMDLDQEASFFGAFLIN
notes: range 118-291
For the molecule B1, the binding result in assay [2] was “no binding”.
